Test results: paper PMC4931317, “UtpA and UtpB chaperone nascent pre-ribosomal RNA and U3 snoRNA to initiate eukaryotic ribosome assembly” (Nature Communications, 2016)

T1: Utp4 (S. cerevisiae, UniProt Q06679 1-776)
T1 construct: Utp4, S. cerevisiae, subunit of UtpA; No tag is named for it in either strain; strains are in Supplementary Data 1; source: endogenous, S. cerevisiae YSK32, co-purified with Utp10-GFP; overexpressed (galactose promoter) in S. cerevisiae YSK122, co-purified with Utp15-mCherry
T1 sequence (looked up): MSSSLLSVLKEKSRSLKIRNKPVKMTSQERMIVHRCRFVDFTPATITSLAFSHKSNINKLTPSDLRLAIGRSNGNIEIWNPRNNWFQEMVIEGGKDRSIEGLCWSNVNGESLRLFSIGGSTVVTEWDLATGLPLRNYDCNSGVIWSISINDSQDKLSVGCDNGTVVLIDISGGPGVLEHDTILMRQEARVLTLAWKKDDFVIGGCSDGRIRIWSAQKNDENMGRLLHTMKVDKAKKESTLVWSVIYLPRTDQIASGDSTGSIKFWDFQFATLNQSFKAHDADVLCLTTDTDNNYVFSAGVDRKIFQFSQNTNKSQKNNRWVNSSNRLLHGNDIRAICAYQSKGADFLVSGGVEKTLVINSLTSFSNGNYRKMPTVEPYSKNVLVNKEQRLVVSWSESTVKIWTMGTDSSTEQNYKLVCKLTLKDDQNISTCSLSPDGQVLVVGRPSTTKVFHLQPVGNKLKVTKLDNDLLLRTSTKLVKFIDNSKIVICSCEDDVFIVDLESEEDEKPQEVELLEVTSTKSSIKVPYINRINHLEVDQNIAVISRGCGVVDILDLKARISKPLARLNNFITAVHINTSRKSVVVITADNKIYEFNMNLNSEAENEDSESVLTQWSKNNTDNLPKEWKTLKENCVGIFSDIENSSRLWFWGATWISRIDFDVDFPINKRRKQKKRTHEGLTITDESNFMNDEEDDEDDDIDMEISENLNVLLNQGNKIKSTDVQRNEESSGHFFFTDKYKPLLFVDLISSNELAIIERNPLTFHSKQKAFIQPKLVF


How the values were obtained:
[1] = target: T2, Utp10-3C-GFP (S. cerevisiae, UniProt P42945 1-1769); assay: pull-down + SEC; endogenous UtpA from YSK32 lysate captured via Utp10-GFP on anti-GFP nanobody sepharose; 50 mM HEPES-NaOH pH 7.6, 200 mM NaCl, 1 mM EDTA, 4 °C; eluted with TEV and 3C protease; Superose 6; peak fraction on Coomassie-stained SDS-PAGE; details: partners not purified
T2 construct: Utp10, S. cerevisiae, subunit of UtpA (200 kDa); GFP is joined through a 3C protease site; it holds the protein on the beads in a1-a3 and is cleaved off by 3C on elution, so it is absent in the SEC step and in the DSS cross-linking (a6); also called Utp10-GFP; Utp10-sbp-H14-3C-GFP; source: S. cerevisiae YSK32, C-terminal tag integrated in the genome, endogenous level; captured from lysate on …
T2 sequence (P42945 whole entry): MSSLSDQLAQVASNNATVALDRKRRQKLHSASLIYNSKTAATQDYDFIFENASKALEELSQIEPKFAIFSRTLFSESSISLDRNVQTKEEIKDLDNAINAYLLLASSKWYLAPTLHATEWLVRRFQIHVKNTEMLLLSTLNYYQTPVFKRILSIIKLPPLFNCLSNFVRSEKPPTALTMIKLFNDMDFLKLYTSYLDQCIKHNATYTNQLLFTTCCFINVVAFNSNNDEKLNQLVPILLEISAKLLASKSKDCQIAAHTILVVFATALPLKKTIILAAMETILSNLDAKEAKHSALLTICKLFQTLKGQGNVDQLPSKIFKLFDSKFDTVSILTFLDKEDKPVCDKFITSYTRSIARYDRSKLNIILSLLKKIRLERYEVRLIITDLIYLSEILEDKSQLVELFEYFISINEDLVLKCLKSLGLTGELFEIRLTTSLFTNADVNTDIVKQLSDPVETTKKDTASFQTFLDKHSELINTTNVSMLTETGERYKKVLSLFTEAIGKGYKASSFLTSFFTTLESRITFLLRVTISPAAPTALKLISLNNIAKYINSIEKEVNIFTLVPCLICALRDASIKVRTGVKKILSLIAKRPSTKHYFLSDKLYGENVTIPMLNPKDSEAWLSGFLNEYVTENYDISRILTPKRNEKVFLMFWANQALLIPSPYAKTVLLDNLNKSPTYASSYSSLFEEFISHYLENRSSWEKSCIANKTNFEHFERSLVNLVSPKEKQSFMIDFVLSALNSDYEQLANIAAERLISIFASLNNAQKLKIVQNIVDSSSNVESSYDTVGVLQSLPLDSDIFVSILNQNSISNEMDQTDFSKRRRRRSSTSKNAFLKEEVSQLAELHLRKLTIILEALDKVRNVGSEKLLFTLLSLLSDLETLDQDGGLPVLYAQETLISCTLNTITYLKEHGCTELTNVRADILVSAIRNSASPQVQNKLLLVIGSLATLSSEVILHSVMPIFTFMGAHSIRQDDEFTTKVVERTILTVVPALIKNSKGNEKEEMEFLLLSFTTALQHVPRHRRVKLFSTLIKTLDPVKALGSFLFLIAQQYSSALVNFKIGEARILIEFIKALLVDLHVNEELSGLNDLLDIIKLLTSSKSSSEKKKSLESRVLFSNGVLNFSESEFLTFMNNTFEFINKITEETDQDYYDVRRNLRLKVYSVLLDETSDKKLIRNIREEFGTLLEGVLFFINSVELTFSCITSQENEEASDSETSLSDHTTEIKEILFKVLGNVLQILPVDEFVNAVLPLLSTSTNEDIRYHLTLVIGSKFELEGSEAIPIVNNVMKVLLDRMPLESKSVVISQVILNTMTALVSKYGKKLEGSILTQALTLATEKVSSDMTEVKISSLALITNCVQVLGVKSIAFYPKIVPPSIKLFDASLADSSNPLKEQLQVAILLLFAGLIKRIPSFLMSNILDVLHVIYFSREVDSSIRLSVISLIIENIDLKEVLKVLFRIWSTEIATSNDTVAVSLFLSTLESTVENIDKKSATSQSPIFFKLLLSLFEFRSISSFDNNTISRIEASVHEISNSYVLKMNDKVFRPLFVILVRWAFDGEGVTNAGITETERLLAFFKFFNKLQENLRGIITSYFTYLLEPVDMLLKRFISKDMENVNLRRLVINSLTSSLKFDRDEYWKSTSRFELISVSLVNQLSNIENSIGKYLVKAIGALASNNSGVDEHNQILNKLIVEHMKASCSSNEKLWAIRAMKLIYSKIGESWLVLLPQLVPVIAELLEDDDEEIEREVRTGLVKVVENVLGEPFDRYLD

[2] = target: T2, Utp10-3C-GFP; assay: cross-linking; DSS (0.2 mM, H12/D12) cross-linking of SEC-purified endogenous UtpA, 25 °C, 30 min, 50 mM HEPES-NaOH pH 7.6, 200 mM NaCl, 1 mM EDTA; cross-linked peptides found by mass spectrometry (pLink); details: both partners purified
[3] = target: T1, Utp4; assay: as above; details: both partners purified

binding result [1]	binding result [2]	binding result [3]	Binder
binds			Utp5 (natural protein, S. cerevisiae, UniProt Q04177 1-643, looked up, Utp5, S. cerevisiae, subunit of UtpA; No tag is named for it in either strain; strains are in Supplementary Data 1; source: endogenous, S. cerevisiae YSK32, co-purified with Utp10-GFP; overexpressed (galactose promoter) in S. cerevisiae YSK122, co-purified with Utp15-mCherry) MDSPVLQSAYDPSGQYLCYVTVALDKQRVGVQPTQRATSSGVDTVWNENFLYLEDSKLKVTCLKWVNLASSDTVAIILGMNNGEIWLYSVLANEVTYKFTTGNSYEIKDIDLMGNQLWCIDSSDAFYQFDLLQFKLLQHFRINNCVQLNKLTIVPAGDSVAQLLVASHSISLIDIEEKKVVMTFPGHVSPVSTLQVITNEFFISGAEGDRFLNVYDIHSGMTKCVLVAESDIKELSHSGQADSIAVTTEDGSLEIFVDPLVSSSTKKRGNKSKKSSKKIQIVSKDGRKVPIYNAFINKDLLNVSWLQNATMPYFKNLQWREIPNEYTVEISLNWNNKNKSADRDLHGKDLASATNYVEGNARVTSGDNFKHVDDAIKSWERELTSLEQEQAKPPQANELLTETFGDKLESSTVARISGKKTNLKGSNLKTATTTGTVTVILSQALQSNDHSLLETVLNNRDERVIRDTIFRLKPALAVILLERLAERIARQTHRQGPLNVWVKWCLIIHGGYLVSIPNLMSTLSSLHSTLKRRSDLLPRLLALDARLDCTINKFKTLNYEAGDIHSSEPVVEEDEDDVEYNEELDDAGLIEDGEESYGSEEEEEGDSDNEEEQKHTSSKQDGRLETEQSDGEEEAGYSDVEME
	binds	binds	Utp8 (natural protein, S. cerevisiae, UniProt P53276 1-713, looked up, Utp8, S. cerevisiae, subunit of UtpA; No tag is named for it in either strain; strains are in Supplementary Data 1; source: endogenous, S. cerevisiae YSK32, co-purified with Utp10-GFP; overexpressed (galactose promoter) in S. cerevisiae YSK122, co-purified with Utp15-mCherry) MPSLSQPFRLATLPKIASLSNFSLQADYVQVADGTFNESTNNITLGISGSSISQYIINPTPKLTFDYPIPSTNIITACNAEKGQANIDGNIEASTDDEANNEKTINTQKKRNVEIWAFGLMVNKGNYTLNVITKALEDTTDTSNDHLSESDIDNKAYTGSDEFLSQYKIKAKAKVMSIKIDTKNSLVIAILQNGLIEIFDFKLTLLHSFDISYDNLKYAKWFTENGTEYVFVLCPLQDDKVCYKLLELTDCGSGESSPIKELSSTIIEGFSFENSKLCYQFGKLYKLNQGKIYIYSLPHCQLQQVIEFPMVDKLSPGDDLISFQPVSVNRVLLTVNNVIYLLDLLHCSTLSQRELTHVKTFQLLKSAVINSEKSHNSKTIAIGISTKNGPNPTSSLEIINIDVGTNTLKDSLGKSFQVGNNDSSVILKPLFDDKDINDKRVKCNDVSGDSSVPVLHCNEVIEKLSALQDNDITSFDDIFFKELKIKEEHYTEKDRYISDPGFLNKVLDLIFGKFSGNDYPKTLTFLLTHPLFPLSRTRNLLSLLRDQPRLFKQAIVTCPNLPLNELLEELFSIRNRELLLDISFRILQDFTRDSIKQEMKKLSKLDVQNFIEFITSGGEDSSPECFNPSQSTQLFQLLSLVLDSIGLFSLEGALLENLTLYIDKQVEIAERNTELWNLIDTKGFQHGFASSTFDNGTSQKRALPTYTMEYLDI
